± gives the uncertainty stated by the source.
Experiment: self-splicing fitness, log relative to wild type (ln ratio); higher = more splicing; Tetrahymena group I intron in knt gene, E. coli kanamycin selection, DiMSum; sequences stand for … in CUCUCU…GGAGGGAAAAGUUAUCAGGCAUGCACCUGGUAGCUAGUCUUUAAACCAAUAGAUUGCAUCGGUUUAAAAGGCAAGACCGUCAAAUUGCGGGAAAGGGGUCAACAGCCGUUCAGUACCAAGUCUCAGGGGAAACUUUGAGAUGGCCUUGCAAAGGGUAUGGUAAUAAGCUGACGGACAUGGUCCUAACCACGCAGCCAAGUCCUAAGUCAACAGAUCUUCUGUUGAUAUGGAUGCAGUUCACAGACUAAAUGUCGGUCGGGGAAGAUGUAUUCUUCUCAUAAGAUAUAGUCGGACCUCUCCUUAAUGGGAGCUAGCGGAUGAAGUGAUGCAACACUGGAGCCGCUGGGAACUAAUUUGUAUGCGAAAGUAUAUUGAUUAGUUUUGGAGUACUCGUGGUCG
Procedure, shortened: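 Colonies from six replicate transformations of E. coli BL21(DE3) were pooled and amplicon-sequenced on an Illumina HiSeq 2500. The library placed an intron with all eight P1ex-region nucleotides randomised inside the knt kanamycin-resistance gene on pET-22b(+), and cells grew overnight at 37°C or 30°C on LB agar with or without 25 μg/mL kanamycin (plus 100 μg/mL carbenicillin, 50 μM IPTG, 0.2% rhamnose). Fitness is the DiMSum error-weighted combination of wild-type-normalised replicate fold changes, kanamycin versus none.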

Row | Sequence | self-splicing fitness (ln) (30 °C) | self-splicing fitness (ln) (37 °C)
1 | UGACAGCAAUAUUACGAGAU | -3.55 ± 0.23 | -2.86 ± 0.26
2 | UGACAGCAAUAUUACGAGCC | -3.37 ± 0.28 | -2.24 ± 0.38
3 | UGACAGCAAUAUUACGAUGA | -0.596 ± 0.068 | -0.119 ± 0.082
4 | UGACAGCAAUAUUACGCUAA | -1.22 ± 0.086 | -0.325 ± 0.093
5 | UGACAGCAAUAUUACGCUAG | -1.37 ± 0.076 | -0.358 ± 0.11
6 | UGACAGCAAUAUUACGCUCA | -0.115 ± 0.11 | -0.155 ± 0.1
7 | UGACAGCAAUAUUACGCUUG | -0.879 ± 0.074 | -0.702 ± 0.11
8 | UGACAGCAAUAUUACGGAGC | -4.35 ± 0.39 | -2.91 ± 0.19
9 | UGACAGCAAUAUUACGGAUG | -0.91 ± 0.054 | -0.91 ± 0.075
10 | UGACAGCAAUAUUACGGCCG | -0.739 ± 0.14 | 0.186 ± 0.19
11 | UGACAGCAAUAUUACGGCGG | -0.935 ± 0.053 | 0.0557 ± 0.072
12 | UGACAGCAAUAUUACGGUCG | -3.56 ± 0.26 | -1.58 ± 0.21
13 | UGACAGCAAUAUUACGGUGC | -2.01 ± 0.49 | 
14 | UGACAGCAAUAUUACGGUGG | -1.56 ± 0.064 | -0.331 ± 0.082
15 | UGACAGCAAUAUUACGGUUU | -1.07 ± 0.059 | -0.226 ± 0.073
16 | UGACAGCAAUAUUACGUAGG | -1.78 ± 0.079 | -1.31 ± 0.11
17 | UGACAGCAAUAUUACGUCGG | -1.72 ± 0.094 | -0.734 ± 0.11
18 | UGACAGCAAUAUUACGUGGG | -3.76 ± 0.14 | -0.757 ± 0.081
19 | UGACAGCAAUAUUACGUUGA | -1.99 ± 0.094 | -1.9 ± 0.12
20 | UGAGAGCAAUAUUACGAACG | -1.02 ± 0.18 | -1.43 ± 0.33
21 | UGAGAGCAAUAUUACGAAUA | -2.76 ± 0.49 | 
22 | UGAGAGCAAUAUUACGAUAC | -3.92 ± 0.46 | -1.91 ± 0.34
23 | UGAGAGCAAUAUUACGAUGC | -2.13 ± 0.39 | -0.477 ± 0.45
24 | UGAGAGCAAUAUUACGCCAC | -2.36 ± 0.31 | -1.1 ± 0.42
25 | UGAGAGCAAUAUUACGCCGC | -3.41 ± 0.23 | -2.5 ± 0.31

Row | Sequence | self-splicing fitness (ln) (30 °C) | self-splicing fitness (ln) (37 °C)
26 | UGAGAGCAAUAUUACGCGUC | -2.95 ± 0.38 | -1.37 ± 0.41
27 | UGAGAGCAAUAUUACGGAUG | -3.61 ± 0.19 | -3.56 ± 0.29
28 | UGAGAGCAAUAUUACGGCAG |  | -1.58 ± 0.31
29 | UGAGAGCAAUAUUACGGCUG | -1.5 ± 0.15 | -0.389 ± 0.26
30 | UGAGAGCAAUAUUACGGGGU |  | -2.4 ± 0.48
31 | UGAGAGCAAUAUUACGGUUG | -2.6 ± 0.12 | -2.64 ± 0.19
32 | UGAGAGCAAUAUUACGUAUC | -0.611 ± 0.42 | -0.408 ± 0.47
33 | UGAGAGCAAUAUUACGUCAC | -2.08 ± 0.4 | 
34 | UGAGAGCAAUAUUACGUGCU | -2.06 ± 0.21 | 
35 | UGAGAGCAAUAUUACGUUGA |  | -2.55 ± 0.24
36 | UGAGAGCAAUAUUACGUUGG |  | -3 ± 0.27
37 | UGAUAGCAAUAUUACGAGUU | -3.82 ± 0.24 | -2.73 ± 0.21
38 | UGAUAGCAAUAUUACGAUCC | -0.554 ± 0.12 | 0.433 ± 0.15
39 | UGAUAGCAAUAUUACGAUUC | -2.33 ± 0.24 | -2.41 ± 0.49
40 | UGAUAGCAAUAUUACGCAUG | -1.23 ± 0.078 | -0.48 ± 0.1
41 | UGAUAGCAAUAUUACGCCUU | -3.11 ± 0.31 | -1.32 ± 0.2
42 | UGAUAGCAAUAUUACGCGAA | -2.64 ± 0.44 | -1.49 ± 0.26
43 | UGAUAGCAAUAUUACGCUCC |  | -0.916 ± 0.3
44 | UGAUAGCAAUAUUACGCUGU | -2.61 ± 0.27 | -3.08 ± 0.38
45 | UGAUAGCAAUAUUACGCUUU | -3.56 ± 0.47 | -1.39 ± 0.15
46 | UGAUAGCAAUAUUACGGACU | -1.17 ± 0.099 | 0.214 ± 0.18
47 | UGAUAGCAAUAUUACGGAGC | -3.26 ± 0.24 | -3.25 ± 0.47
48 | UGAUAGCAAUAUUACGGAGG | -2.79 ± 0.26 | -1.56 ± 0.36
49 | UGAUAGCAAUAUUACGGAUU | -2.78 ± 0.23 | -0.278 ± 0.19
50 | UGAUAGCAAUAUUACGGCGC | -2.62 ± 0.22 | -1.18 ± 0.23

Row | Sequence | self-splicing fitness (ln) (30 °C) | self-splicing fitness (ln) (37 °C)
51 | UGAUAGCAAUAUUACGGUGG | -2.08 ± 0.15 | -1.53 ± 0.25
52 | UGAUAGCAAUAUUACGUAGU | -4.18 ± 0.31 | -2.38 ± 0.28
53 | UGAUAGCAAUAUUACGUCAG | -1.84 ± 0.1 | -1.03 ± 0.12
54 | UGAUAGCAAUAUUACGUCCG | -0.219 ± 0.11 | -0.0349 ± 0.13
55 | UGAUAGCAAUAUUACGUCGU | -2.06 ± 0.34 | -2.02 ± 0.35
56 | UGAUAGCAAUAUUACGUUCU | -1.68 ± 0.11 | 0.264 ± 0.11
57 | UGCAAGCAAUAUUACGAUCA | 0.00924 ± 0.069 | 0.117 ± 0.077
58 | UGCAAGCAAUAUUACGAUUG | -1.93 ± 0.14 | -1.55 ± 0.12
59 | UGCAAGCAAUAUUACGCCCU | -0.189 ± 0.15 | 0.448 ± 0.14
60 | UGCAAGCAAUAUUACGCCUG | -2.3 ± 0.13 | -2.5 ± 0.25
61 | UGCAAGCAAUAUUACGCGCC | -1.18 ± 0.098 | -0.427 ± 0.11
62 | UGCAAGCAAUAUUACGCGUC | -1.63 ± 0.18 | -2.93 ± 0.26
63 | UGCAAGCAAUAUUACGCUAU | -2.7 ± 0.088 | -1.49 ± 0.088
64 | UGCAAGCAAUAUUACGCUCU | -0.965 ± 0.12 | -0.235 ± 0.13
65 | UGCAAGCAAUAUUACGGACA | -0.633 ± 0.12 | -0.0695 ± 0.16
66 | UGCAAGCAAUAUUACGGACU | -0.763 ± 0.077 | 0.286 ± 0.093
67 | UGCAAGCAAUAUUACGGCUC | -1.8 ± 0.11 | -1.01 ± 0.15
68 | UGCAAGCAAUAUUACGGCUU |  | -1.72 ± 0.28
69 | UGCAAGCAAUAUUACGUACA | -0.594 ± 0.062 | 0.366 ± 0.092
70 | UGCAAGCAAUAUUACGUAUU | -3.36 ± 0.37 | -2.08 ± 0.21
71 | UGCAAGCAAUAUUACGUCCA | -0.254 ± 0.047 | 0.213 ± 0.07
72 | UGCAAGCAAUAUUACGUGCC | -0.791 ± 0.092 | -1.12 ± 0.12
73 | UGCAAGCAAUAUUACGUUGG | -2.87 ± 0.12 | -2.22 ± 0.14
74 | UGCAAGCAAUAUUACGUUUU | -4.29 ± 0.16 | -3.33 ± 0.15
75 | UGCCAGCAAUAUUACGAAAA | -2 ± 0.17 | -1.24 ± 0.14

Row | Sequence | self-splicing fitness (ln) (30 °C) | self-splicing fitness (ln) (37 °C)
76 | UGCCAGCAAUAUUACGAAAU | -2.86 ± 0.2 | -1.81 ± 0.17
77 | UGCCAGCAAUAUUACGACCU | -2.35 ± 0.19 | -1.34 ± 0.17
78 | UGCCAGCAAUAUUACGAGUA | -1.49 ± 0.1 | 0.112 ± 0.11
79 | UGCCAGCAAUAUUACGAUAU | -4.12 ± 0.28 | -1.74 ± 0.16
80 | UGCCAGCAAUAUUACGAUCA | -0.629 ± 0.099 | 0.465 ± 0.13
81 | UGCCAGCAAUAUUACGCCGA | -2.56 ± 0.37 | -1.07 ± 0.18
82 | UGCCAGCAAUAUUACGCGUA | -1.13 ± 0.075 | -0.301 ± 0.083
83 | UGCCAGCAAUAUUACGCUAA | -0.447 ± 0.084 | 0.0253 ± 0.095
84 | UGCCAGCAAUAUUACGCUAU | -0.882 ± 0.16 | -1.13 ± 0.16
85 | UGCCAGCAAUAUUACGGACA | -0.325 ± 0.074 | -0.394 ± 0.09
86 | UGCCAGCAAUAUUACGGAUA | -1.27 ± 0.091 | -0.573 ± 0.1
87 | UGCCAGCAAUAUUACGGAUU | -1.67 ± 0.068 | -0.242 ± 0.074
88 | UGCCAGCAAUAUUACGGCGG | -3.73 ± 0.18 | -1.48 ± 0.13
89 | UGCCAGCAAUAUUACGGGAA | -1.37 ± 0.092 | -0.333 ± 0.1
90 | UGCCAGCAAUAUUACGGGUU | -2.46 ± 0.13 | -2.34 ± 0.12
91 | UGCCAGCAAUAUUACGGUGA | -0.97 ± 0.075 | 0.0352 ± 0.092
92 | UGCCAGCAAUAUUACGGUGG | -3.29 ± 0.13 | -2.97 ± 0.21
93 | UGCCAGCAAUAUUACGUAAA | -1.24 ± 0.093 | -0.956 ± 0.12
94 | UGCCAGCAAUAUUACGUAGU | -3.91 ± 0.21 | -1.87 ± 0.13
95 | UGCCAGCAAUAUUACGUAUA | -1.92 ± 0.11 | -1.62 ± 0.12
96 | UGCCAGCAAUAUUACGUCAC |  | -2.01 ± 0.29
97 | UGCCAGCAAUAUUACGUCAG | -2.49 ± 0.11 | -1.53 ± 0.14
98 | UGCCAGCAAUAUUACGUCGC | -3.68 ± 0.44 | -2.95 ± 0.35

Reference: the supplement of paper PMC7877785
